Reference: the Immune Epitope Database (IEDB)

Legend:
[1] = biological target: HLA-B*40:01; test: IEDB peptide-MHC binding, purified MHC/direct/fluorescence; filed as Kd, often an IC50 or EC50 that approximates it; ≥ and ≤ were set here for values at or beyond the usual limits of such assays
[2] = biological target: HLA-A*23:01; test: IEDB peptide-MHC binding, purified MHC/competitive/radioactivity; filed as Kd, often an IC50 or EC50 that approximates it; ≥ and ≤ were set here for values at or beyond the usual limits of such assays
[3] = biological target: HLA-A*30:02; test: as above
[4] = biological target: HLA-A*26:01; test: as above
[5] = biological target: HLA-A*29:02; test: as above
[6] = biological target: HLA-A*01:01; test: as above
[7] = biological target: HLA-A*24:02; test: as above
[8] = biological target: HLA-B*40:01; test: as above
[9] = biological target: HLA-B*44:03; test: as above
[10] = biological target: HLA-B*53:01; test: as above
[11] = biological target: HLA-A*32:01; test: as above
[12] = biological target: HLA-A*30:01; test: as above
[13] = biological target: HLA-B*44:02; test: as above
[14] = biological target: HLA-B*15:01; test: as above
[15] = biological target: HLA-A*68:01; test: as above
[16] = biological target: HLA-A*24:03; test: IEDB peptide-MHC binding, purified MHC/direct/fluorescence; filed as Kd, often an IC50 or EC50 that approximates it; ≥ and ≤ were set here for values at or beyond the usual limits of such assays
[17] = biological target: HLA-B*46:01; test: as above
[18] = biological target: HLA-B*15:01; test: as above; details: source organism: Mammarenavirus lassaense
[19] = biological target: HLA-B*51:01; test: IEDB peptide-MHC binding, purified MHC/competitive/radioactivity; filed as Kd, often an IC50 or EC50 that approximates it; ≥ and ≤ were set here for values at or beyond the usual limits of such assays
[20] = biological target: HLA-B*57:01; test: IEDB peptide-MHC binding, purified MHC/direct/fluorescence; filed as Kd, often an IC50 or EC50 that approximates it; ≥ and ≤ were set here for values at or beyond the usual limits of such assays
[21] = biological target: HLA-B*58:01; test: as above
[22] = biological target: HLA-B*18:01; test: as above
[23] = biological target: HLA-A*31:01; test: IEDB peptide-MHC binding, purified MHC/competitive/radioactivity; filed as Kd, often an IC50 or EC50 that approximates it; ≥ and ≤ were set here for values at or beyond the usual limits of such assays; details: source organism: Mammarenavirus brazilense
[24] = biological target: HLA-A*03:01; test: as above; details: source organism: Mammarenavirus brazilense
[25] = biological target: HLA-A*33:01; test: as above; details: source organism: Mammarenavirus brazilense
[26] = source organism: SARS coronavirus Tor2
[27] = source organism: Dengue virus 1 Brazil/97-11/1997
[28] = source organism: Dengue virus 4 Philippines/H241/1956
[29] = source organism: Mammarenavirus machupoense
[30] = source organism: Lassa virus Josiah
[31] = source organism: Dengue virus 3 Martinique/1243/1999
[32] = source organism: Vaccinia virus WR
[33] = source organism: Vaccinia virus Copenhagen
[34] = source organism: Dengue virus 2 Jamaica/1409/1983
[35] = source organism: Dengue virus 1 Singapore/S275/1990
[36] = source organism: Mammarenavirus lassaense
[37] = source organism: Bacillus mycoides
[38] = source organism: Lymphocytic choriomeningitis virus (strain Armstrong)
[39] = source organism: Yersinia pestis Antiqua
[40] = source organism: Dengue virus 4 Dominica/814669/1981
[41] = source organism: Mammarenavirus brazilense
[42] = source organism: Francisella tularensis subsp. holarctica LVS

AEDMLNPNY
Kd ([1]; source organism: SARS-CoV1): 4390 nM
Kd [2, 26]: ≥ 77800 nM
Kd [3, 26]: 12900 nM
Kd [4, 26]: ≥ 86900 nM
Kd [5, 26]: 3800 nM
Kd [6, 26]: ≥ 87700 nM
Kd [7, 26]: ≥ 77600 nM

AETQHGTVL
Kd [8, 27]: 0.32 nM
Kd [9, 27]: 52.7 nM

ASLVMLLVHY
Kd [3, 28]: 1900 nM
Kd [9, 28]: ≥ 70100 nM
Kd [6, 28]: 1830 nM

CPLLVNTEPE
Kd [10, 28]: 1650 nM

CTNFKTQLV
Kd [2, 29]: ≥ 77700 nM
Kd [11, 29]: ≥ 77800 nM
Kd [3, 29]: 2290 nM
Kd [4, 29]: 13200 nM
Kd [5, 29]: 4460 nM
Kd [6, 29]: 1150 nM
Kd [7, 29]: ≥ 77500 nM
Kd [12, 29]: 1040 nM

CWLVSNGSY
Kd [11, 30]: 18800 nM
Kd [3, 30]: 6.3 nM
Kd [4, 30]: ≥ 34400 nM
Kd [5, 30]: 543 nM
Kd [6, 30]: 13900 nM
Kd [12, 30]: 16900 nM

DIMGIPYCNY
Kd [11, 30]: ≥ 69900 nM
Kd [3, 30]: 444 nM
Kd [4, 30]: 541 nM
Kd [5, 30]: 105 nM
Kd [6, 30]: ≥ 28900 nM
Kd [12, 30]: ≥ 70400 nM

EEESEGAIW
Kd [9, 31]: 67.7 nM
Kd [13, 31]: 33.7 nM

EENMDVEIW
Kd [9, 27]: 123 nM
Kd [13, 27]: 82.8 nM

EPIPMATYGW
Kd [10, 27]: 13.2 nM
Kd [4, 27]: ≥ 69700 nM

ERRYVNVHF
Kd [14, 32]: 7380 nM

FIRMLILNF
Kd [14, 33]: 7450 nM

FQYSDRRWCF
Kd [2, 27]: 272 nM
Kd [14, 27]: 3.88 nM
Kd [7, 27]: 2480 nM

FSHDHIGHG
Kd [14, 32]: 31.9 nM

FTMRLLSPVR
Kd [15, 34]: 7.73 nM
Kd [12, 34]: 9070 nM

FTTRHRKPTY
Kd [6, 28]: ≥ 23600 nM
Kd [12, 28]: 1960 nM

GAIDLCRHF
Kd [14, 32]: 117 nM

GESSPSPTV
Kd [8, 31]: 9.6 nM
Kd [13, 31]: 744 nM

GEVGAIALDF
Kd [9, 27]: 23.5 nM
Kd [13, 27]: 21.5 nM

GVYPLSIPAT
Kd [12, 35]: 1900 nM

GYAGTLQSL
Kd ([16]; source organism: Mycobacterium tuberculosis variant bovis): 0.9 nM

HAIVINPFV
Kd [12, 32]: 221 nM

HEHKSTWHY
Kd [9, 35]: 9.11 nM
Kd [13, 35]: 19.8 nM

IIKSSYVFK
Kd [12, 32]: 10.9 nM

IMGIPYCNY
Kd [17, 36]: ≥ 20000 nM
Kd [18]: 43 nM

IMMLKLLTDF
Kd ([14]; source organism: Dengue virus 1 Nauru/West Pac/1974): 18.8 nM

IPYDPKFEK
Kd [19, 34]: 2200 nM

IQKETLVTF
Kd [2, 34]: 40.5 nM
Kd [14, 34]: 1.61 nM
Kd [7, 34]: 1560 nM

ISKTSIACF
Kd [14, 33]: 10800 nM

ITFQSILGY
Kd [20, 37]: 70.7 nM
Kd [21, 37]: 57.3 nM

ITNELNYVLW
Kd [10, 28]: 483 nM

IWGRKSWPLN
Kd [12, 27]: 2050 nM

KAYLYTEYF
Kd [14, 32]: 7.64 nM

KEEESEGAIW
Kd [9, 31]: 90.9 nM
Kd [13, 31]: 58.4 nM

KEGDQYVYM
Kd [8, 27]: 397 nM

KEISNMLNIM
Kd [8, 35]: 8.34 nM

KEISSMLNI
Kd [8, 27]: 262 nM
Kd [9, 27]: 76.6 nM
Kd [13, 27]: 38.9 nM

KEYCVECYM
Kd [14, 32]: 4620 nM

KIRCEITSF
Kd [14, 32]: 4.28 nM

KLITQFETY
Kd [11, 31]: 202 nM
Kd [3, 31]: 7780 nM
Kd [14, 31]: 20.2 nM

KLRPKWLDA
Kd [12, 28]: 32.7 nM

KLSHSDYEY
Kd [11, 38]: 6390 nM
Kd [3, 38]: 22.5 nM
Kd [4, 38]: ≥ 77900 nM
Kd [5, 38]: 1260 nM
Kd [6, 38]: 2580 nM
Kd [12, 38]: ≥ 24200 nM

KYRYGTFLY
Kd [12, 32]: 1.07 nM

LALFLAHYI
Kd [19, 31]: 342 nM

LARWGTFKK
Kd [12, 31]: 316 nM

LEFFLIVLL
Kd [8, 34]: 123 nM
Kd [9, 34]: 17600 nM

LETLMLVAL
Kd [8, 28]: 3.49 nM
Kd [13, 28]: 1100 nM

LRHPGFTVI
Kd [19, 27]: ≥ 10000 nM

MANICWIYY
Kd [20, 39]: 256 nM
Kd [21, 39]: 43.3 nM

MATFKMRPMF
Kd [12, 27]: 1790 nM

MEGLKLLSL
Kd [1, 36]: 160 nM
Kd [22, 36]: 222 nM

MEIRPVKEK
Kd [9, 27]: 1010 nM
Kd [13, 27]: 640 nM

MEKASFIEV
Kd [8, 34]: 1210 nM
Kd [13, 34]: 320 nM

MELIDGISL
Kd [8, 40]: 2.29 nM
Kd [9, 40]: 226 nM
Kd [13, 40]: 375 nM

MERFNCSSF
Kd [14, 33]: 1.62 nM

MTRDPLYIY
Kd [12, 32]: 16.9 nM

NEMGLLETT
Kd [9, 27]: 8030 nM

PPFGDSYII
Kd [19, 34]: 9780 nM
Kd [10, 34]: 1740 nM

RAKRGTAQI
Kd [12, 27]: 137 nM

REIPERSWNT
Kd [8, 28]: 1480 nM

RGRIGRNPK
Kd [12, 34]: 18.7 nM

RIIPKNNHA
Kd [14, 32]: 444 nM

RIKQQGIFG
Kd [12, 31]: 19.9 nM

RLKGESRKTF
Kd [14, 31]: 300 nM

RMAILGDTAW
Kd [10, 34]: 21.4 nM
Kd [14, 34]: 233 nM
Kd [13, 34]: 451 nM

RQEKGKSLLF
Kd [14, 34]: 42.3 nM

RQRTPQDNQL
Kd [14, 27]: 112 nM

RTKDTRIKA
Kd [12, 32]: 0.196 nM

RYPIDPFLL
Kd [16, 36]: 5.6 nM

SEIRWEESF
Kd [14, 32]: 46.9 nM

SENEVKLTI
Kd [8, 34]: 373 nM
Kd [9, 34]: 14.1 nM
Kd [13, 34]: 0.814 nM

SETFSMGLLC
Kd [9, 28]: 82.9 nM

SLVMLLVHY
Kd [3, 28]: 1600 nM
Kd [14, 28]: 419 nM

SQEAEFTGY
Kd ([17]; source organism: Yellow fever virus): ≥ 20000 nM

SQHNHRPGY
Kd [3, 31]: 28.7 nM
Kd [14, 31]: 91.2 nM

STYYVHENK
Kd [23]: 57.3 nM
Kd [24]: 5.16 nM
Kd [15, 41]: 13 nM
Kd [25]: 454 nM
Kd [12, 41]: 3320 nM

TEIASLPTY
Kd [9, 28]: 18.5 nM
Kd [13, 28]: 13 nM

TELKYSWKTW
Kd [11, 34]: 4270 nM
Kd [9, 34]: 23.9 nM
Kd [13, 34]: 37.9 nM

TTTDSRCPTQ
Kd [12, 27]: ≥ 51200 nM

VEDERFWDL
Kd [8, 27]: 155 nM

VEIGLGMPF
Kd [1, 42]: 16.8 nM
Kd [22, 42]: ≤ 1 nM

VTNIELEPPF
Kd [12, 28]: 468 nM

WENNIKLTVV
Kd [8, 31]: 443 nM

YAQMWSLMYF
Kd [2, 31]: 594 nM
Kd [19, 31]: 12900 nM
Kd [10, 31]: 106 nM
Kd [14, 31]: 9.91 nM
Kd [7, 31]: 247 nM

YFHAELNYL
Kd ([16]; source organism: Vibrio vulnificus): 3.7 nM

YKELCDAVY
Kd [2, 29]: ≥ 40500 nM
Kd [11, 29]: ≥ 77800 nM
Kd [3, 29]: 1420 nM
Kd [4, 29]: ≥ 77900 nM
Kd [5, 29]: 3200 nM
Kd [6, 29]: 4060 nM
Kd [7, 29]: ≥ 77500 nM
Kd [12, 29]: ≥ 54300 nM

YNNFYFYSF
Kd [14, 32]: 1460 nM

YQPEREKVY
Kd ([17]; source organism: West Nile virus): ≥ 20000 nM
